Publication PMC6271298, “Pharmacophore Generation from a Drug-like Core Molecule Surrounded by a Library Peptide via the 10BASEd-T on Bacteriophage T7” (Molecules, 2014)
5/6‑FAM = 5/6-carboxyfluorescein

B1: Sal-conjugated fluorescent peptide possessing the sequence of clone 7 (K-5/6-FAM-A-M-W-C*-Q-Y-H-P-Q-N-C*-Y-K-M-NH2) (peptide)
peptide: KAMWCQYHPQNCYKM
modifications: 5/6-FAM on the N-terminal lysine (K-5/6-FAM); Sal-conjugated Cys (C*) at both cysteines; C-terminal amide (NH2)
notes: Linear peptide; both cysteines are alkylated with 4-acetamidosalicylic acid (thioether); also called Sal-conjugated peptide; Sal-conjugated linear peptide; source: synthetic peptide (solid phase synthesis, HPLC), then conjugated with Sal-IA and purified by reverse-phase HPLC
B2: mock (Sal-unconjugated) fluorescent peptide (H2N-K-5/6-FAM-A-M-W-C-Q-Y-H-P-Q-N-C-Y-K-M-NH2) (peptide)
peptide: H-K(5/6‑FAM)AMWCQYHPQNCYKM-NH2
modifications: cysteine pairing not given here
notes: cysteines not alkylated; Assayed under reducing conditions (1 mM TCEP), so the cysteines are free thiols; also called mock peptide; unmodified fluorescent peptide; source: synthetic peptide (solid phase synthesis, reverse-phase HPLC)

Biological target: T1, streptavidin (UniProt P22629 25-183)
T1 construct: streptavidin; Commercial streptavidin is usually a homotetramer of a processed (core) form; also called SA; source: bought: Wako Pure Chemical Industries (ELISA)
Test: fluorescence polarisation; 4 pmol FAM-labelled peptide with various concentrations of the protein; 50 mM Tris-HCl pH 8.0, 150 mM NaCl, 1 mM TCEP-NaOH, 30 °C; Klotz plot, non-linear least squares fit
Settings: both partners purified

T1 sequence (P22629 25-183): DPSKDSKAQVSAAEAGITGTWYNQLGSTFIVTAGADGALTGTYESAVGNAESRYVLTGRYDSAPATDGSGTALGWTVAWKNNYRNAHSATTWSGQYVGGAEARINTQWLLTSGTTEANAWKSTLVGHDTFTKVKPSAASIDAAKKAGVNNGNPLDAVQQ

Row | Binder | Kd [nM] | fold lower affinity than the Sal-conjugated peptide [fold]
1 | B1 | 180 | –
2 | B2 | – | ~10
